B1: YFL-5 (Lac-A3, Lac8-2), truncated (ssDNA)
DNA: CAGGCAGGACACCGTAACCGGGCATTTGCTCTCAATTTAGTCTCAAATTGTGGCCTGCCTG
B2: YFL-7 (Lac-A6), truncated (ssDNA)
DNA: GCAGGACACCGTAACGGGTGCACACTCTTATTTTTACACGAGCCAAAAATATGTCCTGC
B3: YFL-1 (Lac-6a), truncated (ssDNA)
DNA: AGGCAGGACACCGTAACCGGTGCATCTATGGCTACTAGCTTTTCCTGCCT
B4: YFL-6 (Lac-A4), truncated (ssDNA)
DNA: AGGCAGGACACCGTAACCGGTGCATCTATGGCTACTAGCTCTTCCTGCCT
B5: YFL-4 (Lac-A1, Lac1-4), truncated (ssDNA)
DNA: GCAGGACACCGTAACACGGGCTGATGCTCTCTTTATTTTACCTAAATAAAGTGTCCTGC

What follows are binders tested against lactoferrin (Lac) (bovine? ("from bovine milk"), UniProt P24627 20-708) (assay: protein microarray).
Chain of lactoferrin (Lac) (P24627 20-708): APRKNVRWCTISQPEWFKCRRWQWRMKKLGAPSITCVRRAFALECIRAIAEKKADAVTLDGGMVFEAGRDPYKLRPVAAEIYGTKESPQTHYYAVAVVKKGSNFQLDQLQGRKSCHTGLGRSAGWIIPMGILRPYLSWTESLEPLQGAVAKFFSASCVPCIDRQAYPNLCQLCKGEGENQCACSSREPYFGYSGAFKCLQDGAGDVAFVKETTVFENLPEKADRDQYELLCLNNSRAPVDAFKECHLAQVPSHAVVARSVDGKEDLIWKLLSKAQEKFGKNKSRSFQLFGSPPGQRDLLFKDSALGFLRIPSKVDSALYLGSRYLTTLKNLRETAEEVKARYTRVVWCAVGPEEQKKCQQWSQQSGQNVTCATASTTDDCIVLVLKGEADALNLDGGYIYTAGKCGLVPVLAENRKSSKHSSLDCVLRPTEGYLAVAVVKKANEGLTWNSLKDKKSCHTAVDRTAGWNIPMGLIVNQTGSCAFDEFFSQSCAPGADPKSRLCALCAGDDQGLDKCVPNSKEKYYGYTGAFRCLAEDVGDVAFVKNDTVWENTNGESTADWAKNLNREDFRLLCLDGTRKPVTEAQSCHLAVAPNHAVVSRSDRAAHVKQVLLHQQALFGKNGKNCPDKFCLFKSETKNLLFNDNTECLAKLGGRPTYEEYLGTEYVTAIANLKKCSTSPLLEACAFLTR
For B1, the binding signal was 2240 fluorescence intensity. Work on B2 yielded a binding signal of 2490 fluorescence intensity. Binder B3 has a binding signal of 1780 fluorescence intensity. In the case of B4, the binding signal is reported as 2840 fluorescence intensity. B5 showed a binding signal of 2150 fluorescence intensity.
